Experimental findings from US20160326228A1 (ACCELERON PHARMA, published 2016) are described below.

Assay [1] deals with T1, Growth and Differentiation Factor-11 (GDF11) (UniProt O95390 299-407).
T1 construct: also called BMP11
T1 sequence (looked up): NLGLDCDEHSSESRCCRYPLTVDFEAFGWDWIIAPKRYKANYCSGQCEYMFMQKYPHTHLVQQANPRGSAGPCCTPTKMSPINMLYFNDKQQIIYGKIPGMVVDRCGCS
The experiment in a line: BiaCore; ligand coupled, receptor flowed over. (In general: In SPR one partner is held on a chip, and binding of the other changes the refractive index at the surface.)

The target in the next assay is T2, Activin A (UniProt P08476 311-426).
T2 construct: also called ActA
T2 sequence (looked up): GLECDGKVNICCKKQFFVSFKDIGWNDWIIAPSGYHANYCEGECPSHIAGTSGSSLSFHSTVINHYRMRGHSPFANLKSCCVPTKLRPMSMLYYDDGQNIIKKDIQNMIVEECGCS
The assay is described as follows: BiaCore; ligand coupled, receptor flowed over.

B1: Soluble ActRIIB-Fc variant D54A (Fc fusion)
chain: GRGEAETRECIYYNANWELERTNQSGLERCEGEQAKRLHCYASWANSSGTIELVKKGCWLDDFNCYDRQECVATEENPQVYFCCCEGNFCNERFTHLPEA
notes: whole entry named; not shown: linker (if any) and Fc
For B1, the binding result in assay [1] was “no binding”.

B2: Soluble ActRIIB-Fc variant D80A (Fc fusion)
chain: GRGEAETRECIYYNANWELERTNQSGLERCEGEQDKRLHCYASWANSSGTIELVKKGCWLADFNCYDRQECVATEENPQVYFCCCEGNFCNERFTHLPEA
notes: as for B1
For the molecule B2, the binding result (in assay [1]; with Activin A) was “no binding” each time.

B3: Soluble ActRIIB-Fc variant D80R (Fc fusion)
chain: GRGEAETRECIYYNANWELERTNQSGLERCEGEQDKRLHCYASWANSSGTIELVKKGCWLRDFNCYDRQECVATEENPQVYFCCCEGNFCNERFTHLPEA
notes: as for B1
Consider B3, for which the binding result (in assay [1]; with Activin A) was “no binding” throughout.

B4: Soluble ActRIIB-Fc variant D80M (Fc fusion)
chain: GRGEAETRECIYYNANWELERTNQSGLERCEGEQDKRLHCYASWANSSGTIELVKKGCWLMDFNCYDRQECVATEENPQVYFCCCEGNFCNERFTHLPEA
notes: as for B1
In the case of B4, the binding result (in assay [1]; with Activin A) was “no binding” in each case.

B5: Soluble ActRIIB-Fc variant E37A (Fc fusion)
chain: GRGEAETRECIYYNANWALERTNQSGLERCEGEQDKRLHCYASWANSSGTIELVKKGCWLDDFNCYDRQECVATEENPQVYFCCCEGNFCNERFTHLPEA
notes: as for B1
On to B5, for which the binding result (in assay [1]; with Activin A) was “no binding” throughout.

B6: Soluble ActRIIB-Fc variant D80N (Fc fusion)
chain: GRGEAETRECIYYNANWELERTNQSGLERCEGEQDKRLHCYASWANSSGTIELVKKGCWLNDFNCYDRQECVATEENPQVYFCCCEGNFCNERFTHLPEA
notes: as for B1
In the case of B6, the binding result (in assay [1]; with Activin A) was “no binding” in each case.

B7: Soluble ActRIIB-Fc variant D80F (Fc fusion)
chain: GRGEAETRECIYYNANWELERTNQSGLERCEGEQDKRLHCYASWANSSGTIELVKKGCWLFDFNCYDRQECVATEENPQVYFCCCEGNFCNERFTHLPEA
notes: as for B1
B7: the binding result (in assay [1]; with Activin A) was “no binding” each time.

B8: Soluble ActRIIB-Fc variant L79A (Fc fusion)
chain: GRGEAETRECIYYNANWELERTNQSGLERCEGEQDKRLHCYASWANSSGTIELVKKGCWADDFNCYDRQECVATEENPQVYFCCCEGNFCNERFTHLPEA
notes: as for B1
For the molecule B8, the binding result in assay [1] is given as “no binding”.

B9: Soluble ActRIIB-Fc variant D80G (Fc fusion)
chain: GRGEAETRECIYYNANWELERTNQSGLERCEGEQDKRLHCYASWANSSGTIELVKKGCWLGDFNCYDRQECVATEENPQVYFCCCEGNFCNERFTHLPEA
notes: as for B1
Take B9: the binding result (in assay [1]; with Activin A) was “no binding” throughout.

B10: Soluble ActRIIB-Fc variant R56A (Fc fusion)
chain: GRGEAETRECIYYNANWELERTNQSGLERCEGEQDKALHCYASWANSSGTIELVKKGCWLDDFNCYDRQECVATEENPQVYFCCCEGNFCNERFTHLPEA
notes: as for B1
For B10, the binding result (in assay [1]; with Activin A) was “no binding” each time.

B11: Soluble ActRIIB-Fc variant K55A (Fc fusion)
chain: GRGEAETRECIYYNANWELERTNQSGLERCEGEQDARLHCYASWANSSGTIELVKKGCWLDDFNCYDRQECVATEENPQVYFCCCEGNFCNERFTHLPEA
notes: as for B1
In the case of B11, the binding result in assay [1] was “no binding”.

B12: Soluble ActRIIB-Fc WT (64A) (Fc fusion, UniProt Q13705 19-119, looked up)
chain: SGRGEAETRECIYYNANWELERTNQSGLERCEGEQDKRLHCYASWANSSGTIELVKKGCWLDDFNCYDRQECVATEENPQVYFCCCEGNFCNERFTHLPEA
notes: as for B1
Consider B12, for which the figures for the equilibrium dissociation constant (Kd) (in assay [1]; with Activin A) were 260 nM and 180 nM, respectively.

As a reminder, the Kd is a measure of binding affinity in units of concentration. Low values mean higher affinity, high ones lower affinity.
